In PMC4676284 (mBio, 2015):

Molecular target: the molecule itself
Experiment: crystal structure

Protein | stoichiometry N
Bartonella grahamii strain as4aup TrwG, soluble C-terminal periplasmic domain (domain or fragment) QPAPTPLVLRVDNTTGAVDVISVMREHETSYGEVVDRYWLNQYVLNRENYDYDTIQLNYDTTALLSAASVQQEYYKIYDGENARDKVLSNKARITVKVRSIQLNGLGQATVRFTTQQLDSSGATTGPKQHQIATIGYTYVGAPMKSSDRLLNPLGFQITSYRSDPEILLND | 2
Bartonella grahamii strain as4aup VirB8, soluble C-terminal periplasmic domain (domain or fragment) ALTPLKTVEPFVIRVDNSTGIIDTVSALKESPNDYDEAITRYFASQYVRAREGFQASEAENNFRLVSLLSSPKEQNRFGKWYAGNNPESPQNIYHNMIATVTIKSISFISKDLIQVRYYKTVRDFNEKENISHWISILNFSYVNAHISTSDRLINPLGFQVSEYRSDPEVIK | 2
Bartonella birtlesii strain LL-WM9 TrwG, soluble C-terminal periplasmic domain (domain or fragment) QPAPTPLVLRVDNTTGAVDVISVMREHETSYGEVVDRYWLNQYVLNRETYDYDTIQLNYDTTALLSTAAVQQEFYKIYEGEDARDKVLSNKARITVKVRSIQPNGRGQATVRFTTQQHDSTGAVGVKQHQIATIGYTYVGAPMKSSDRLLNPLGFQVTSYRTDPEILLNN | 2
